This note sets out measurements from article PMC4760936 (PLoS ONE, 2016).

The target of this assay is staphylococcal enterotoxin B (Staphylococcus aureus, strain , UniProt P01552). Nature of the assay: SPR; ProteOn XPR36; […] (10 mM acetate pH 5.0); […]; Langmuir model. The conditions noted are these: both partners purified. (In general: SPR reads the build-up and loss of mass on a sensor chip optically.)
staphylococcal enterotoxin B, sequence (P01552 28-266): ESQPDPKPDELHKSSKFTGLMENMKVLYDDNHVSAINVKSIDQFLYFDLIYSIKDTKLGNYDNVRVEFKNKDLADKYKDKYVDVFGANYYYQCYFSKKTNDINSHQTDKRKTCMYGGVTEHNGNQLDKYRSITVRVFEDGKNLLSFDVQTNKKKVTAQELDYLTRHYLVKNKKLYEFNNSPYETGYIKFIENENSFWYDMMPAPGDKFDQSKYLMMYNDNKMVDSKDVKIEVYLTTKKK

B1: sdAb D9 (VHH)
VHH: EVQLQASGGGLAQAGDSLRLSCAASIRTFGSYAMGWFRQAPGKEREFVAAISWSGGDTYADSAKGRFTISRDNAKNMMYLQMNSLAPEDTAVYFCAIVEAKYYISKDARDYGYWGQGTQVFVSS
notes: also called Class C exemplar
As for B1, the affinity, expressed as Kd, was 0.11 nM; the koff (usually the first-order rate constant of dissociation) came out at 0.00028 s⁻¹; the kon (usually a measure of how fast the partners come together) came to 2.5e+06 M⁻¹ s⁻¹.

B2: sdAb E2 (VHH)
VHH: EVQLQASGGGLVQAGGSLRLTCAASGRTFGSYAMGWFRQAPGKEREFVAAISWSGGDTYADSVKGRFTISRDNAKNTVYLQMNSLAPEDTAVYSCAAVGARYYISKDAKDYGYWGQGTQVTVSS
notes: also called Class A exemplar
For B2, the Kd (usually a measure of binding affinity in units of concentration) turned out to be 0.27 nM, the koff was determined as 0.0035 s⁻¹ and the kon is 1.3e+07 M⁻¹ s⁻¹.
